How the values were obtained:
HNRNPA1 = HNRNPA1 (UniProt P09651); test: co-IP with mouse IgG control, mass spectrometry; lysate of C-FLAG B3GNT2 cells
RPL36A = RPL36A (UniProt P83881); test: as above
TRIM21 = TRIM21 (UniProt P19474); test: as above
SERPINB12 = SERPINB12 (UniProt Q96P63); test: as above
HBA1 = HBA1 (UniProt P69905); test: as above
YBX3 = YBX3 (UniProt P16989); test: as above
RPN1 = RPN1 (UniProt P04843); test: as above
RPLP2 = RPLP2 (UniProt P05387); test: as above
RPS17 = RPS17 (UniProt P08708); test: as above
PPIA = PPIA (UniProt P62937); test: as above
CTSD = CTSD (UniProt P07339); test: as above
LTF = LTF (UniProt P02788); test: as above
YWHAZ = YWHAZ (UniProt P63104); test: as above
PCMT1 = PCMT1 (UniProt P22061); test: as above
RPL10A = RPL10A (UniProt P62906); test: as above
EEF1A1 = EEF1A1 (UniProt P68104); test: as above
ENO1 = ENO1 (UniProt P06733); test: as above
SSR1 = SSR1 (UniProt P43307); test: as above
ATP5F1B = ATP5F1B (UniProt P06576); test: as above
UBA52 = UBA52 (UniProt P62987); test: as above
RPL35A = RPL35A (UniProt P18077); test: as above
RPL36 = RPL36 (UniProt Q9Y3U8); test: as above
DNAJA1 (human) = DNAJA1 (human) (UniProt P31689); test: co-IP/MS, IgG control IP of C-FLAG B3GNT2 cell lysate
CAPZB (human) = CAPZB (human) (UniProt P47756); test: as above
CASP14 (human) = CASP14 (human) (UniProt P31944); test: as above
PDIA6 (human) = PDIA6 (human) (UniProt Q15084); test: as above
TUBB (human) = TUBB (human) (UniProt P07437); test: as above
RPS9 (human) = RPS9 (human) (UniProt P46781); test: as above
RPS5 (human) = RPS5 (human) (UniProt P46782); test: as above
RPL23A (human) = RPL23A (human) (UniProt P62750); test: as above
CAPZA1 (human) = CAPZA1 (human) (UniProt P52907); test: as above
ERLIN1 (human) = ERLIN1 (human) (UniProt O75477); test: as above
CALU (human) = CALU (human) (UniProt O43852); test: as above
LRP1 (human) = LRP1 (human) (UniProt Q07954); test: as above
RPLPO (human) = RPLPO (human) (UniProt P05388); test: as above
FKBP10 (human) = FKBP10 (human) (UniProt Q96AY3); test: as above
RCN2 (human) = RCN2 (human) (UniProt Q14257); test: as above
CKAP4 (human) = CKAP4 (human) (UniProt Q07065); test: as above

Chain of ENO1 (P06733 2-434 limits assumed): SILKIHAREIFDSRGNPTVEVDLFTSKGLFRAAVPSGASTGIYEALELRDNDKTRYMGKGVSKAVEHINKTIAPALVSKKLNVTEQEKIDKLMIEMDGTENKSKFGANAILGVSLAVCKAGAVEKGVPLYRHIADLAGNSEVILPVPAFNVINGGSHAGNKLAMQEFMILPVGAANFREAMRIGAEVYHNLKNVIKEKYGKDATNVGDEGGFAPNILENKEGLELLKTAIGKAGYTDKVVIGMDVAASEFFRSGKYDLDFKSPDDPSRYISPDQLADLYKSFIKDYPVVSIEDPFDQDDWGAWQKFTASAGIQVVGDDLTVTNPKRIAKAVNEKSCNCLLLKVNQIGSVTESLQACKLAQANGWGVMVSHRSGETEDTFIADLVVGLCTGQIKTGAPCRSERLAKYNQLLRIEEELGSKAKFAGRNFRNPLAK
Chain of YBX3 (P16989 2-372 limits assumed): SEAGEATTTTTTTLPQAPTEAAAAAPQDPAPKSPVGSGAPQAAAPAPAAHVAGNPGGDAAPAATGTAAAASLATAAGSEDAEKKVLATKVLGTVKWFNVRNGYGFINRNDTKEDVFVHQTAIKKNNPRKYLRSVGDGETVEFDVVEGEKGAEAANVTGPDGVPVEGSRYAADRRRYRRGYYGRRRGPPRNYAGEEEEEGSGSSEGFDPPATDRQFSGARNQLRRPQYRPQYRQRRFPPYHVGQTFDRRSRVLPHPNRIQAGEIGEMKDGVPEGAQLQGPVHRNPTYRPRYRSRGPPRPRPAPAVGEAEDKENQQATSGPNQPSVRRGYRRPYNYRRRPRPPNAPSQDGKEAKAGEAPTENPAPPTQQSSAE
Chain of TRIM21 (P19474 whole entry): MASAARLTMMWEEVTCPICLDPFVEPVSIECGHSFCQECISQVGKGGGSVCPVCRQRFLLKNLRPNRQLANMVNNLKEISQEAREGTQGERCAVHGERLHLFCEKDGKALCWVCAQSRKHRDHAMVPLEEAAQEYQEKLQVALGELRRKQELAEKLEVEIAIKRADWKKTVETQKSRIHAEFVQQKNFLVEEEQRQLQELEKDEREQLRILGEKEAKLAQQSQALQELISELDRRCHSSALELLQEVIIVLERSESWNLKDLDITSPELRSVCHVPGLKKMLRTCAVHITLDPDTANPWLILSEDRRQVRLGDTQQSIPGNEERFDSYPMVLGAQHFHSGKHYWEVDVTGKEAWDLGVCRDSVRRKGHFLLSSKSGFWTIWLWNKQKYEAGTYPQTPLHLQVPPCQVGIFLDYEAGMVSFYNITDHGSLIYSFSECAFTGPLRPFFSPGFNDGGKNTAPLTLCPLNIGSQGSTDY
Chain of PDIA6 (human) (Q15084 20-440 limits assumed): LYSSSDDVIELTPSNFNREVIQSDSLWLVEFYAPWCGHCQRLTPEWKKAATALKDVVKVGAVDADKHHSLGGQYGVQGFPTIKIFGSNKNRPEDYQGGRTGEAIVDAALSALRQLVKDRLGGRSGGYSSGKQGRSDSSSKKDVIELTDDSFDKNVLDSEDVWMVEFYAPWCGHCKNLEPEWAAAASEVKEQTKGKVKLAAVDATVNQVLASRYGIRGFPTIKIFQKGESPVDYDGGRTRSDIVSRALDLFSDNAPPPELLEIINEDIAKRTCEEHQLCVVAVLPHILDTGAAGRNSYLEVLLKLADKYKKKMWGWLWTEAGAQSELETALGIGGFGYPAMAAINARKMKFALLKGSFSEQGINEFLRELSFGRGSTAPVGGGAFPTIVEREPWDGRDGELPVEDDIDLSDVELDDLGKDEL
Chain of TUBB (human) (P07437 whole entry): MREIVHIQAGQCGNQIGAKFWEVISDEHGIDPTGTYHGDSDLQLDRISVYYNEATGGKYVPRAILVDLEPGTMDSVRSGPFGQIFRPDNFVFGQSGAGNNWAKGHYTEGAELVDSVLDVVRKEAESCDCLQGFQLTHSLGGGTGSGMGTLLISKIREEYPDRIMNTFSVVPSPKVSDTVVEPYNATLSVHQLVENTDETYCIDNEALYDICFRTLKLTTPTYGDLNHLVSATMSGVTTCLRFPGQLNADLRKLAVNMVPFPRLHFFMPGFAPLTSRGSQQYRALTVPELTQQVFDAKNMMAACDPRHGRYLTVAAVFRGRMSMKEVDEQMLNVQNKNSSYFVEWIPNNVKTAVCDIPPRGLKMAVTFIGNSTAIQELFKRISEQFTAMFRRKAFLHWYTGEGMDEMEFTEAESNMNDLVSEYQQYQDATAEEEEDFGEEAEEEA
Chain of LTF (P02788 20-710 limits assumed): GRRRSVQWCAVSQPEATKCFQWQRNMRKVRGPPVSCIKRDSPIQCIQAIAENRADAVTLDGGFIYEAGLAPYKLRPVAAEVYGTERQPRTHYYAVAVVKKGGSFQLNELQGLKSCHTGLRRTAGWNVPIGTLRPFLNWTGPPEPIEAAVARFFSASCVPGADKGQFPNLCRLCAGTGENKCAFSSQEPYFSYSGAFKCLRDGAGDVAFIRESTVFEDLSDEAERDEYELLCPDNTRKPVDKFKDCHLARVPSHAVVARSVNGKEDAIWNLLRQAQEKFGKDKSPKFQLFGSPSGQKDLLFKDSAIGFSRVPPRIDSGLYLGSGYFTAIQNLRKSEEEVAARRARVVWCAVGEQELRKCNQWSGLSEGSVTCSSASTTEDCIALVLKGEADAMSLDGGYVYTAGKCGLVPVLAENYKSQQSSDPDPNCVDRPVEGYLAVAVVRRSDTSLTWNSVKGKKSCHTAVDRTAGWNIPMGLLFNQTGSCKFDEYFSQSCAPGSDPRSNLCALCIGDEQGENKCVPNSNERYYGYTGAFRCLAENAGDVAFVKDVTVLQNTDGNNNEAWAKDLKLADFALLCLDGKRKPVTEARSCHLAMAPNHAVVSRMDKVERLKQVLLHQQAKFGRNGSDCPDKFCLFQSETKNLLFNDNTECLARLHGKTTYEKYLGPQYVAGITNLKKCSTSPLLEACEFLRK
Chain of CALU (human) (O43852 20-315 limits assumed): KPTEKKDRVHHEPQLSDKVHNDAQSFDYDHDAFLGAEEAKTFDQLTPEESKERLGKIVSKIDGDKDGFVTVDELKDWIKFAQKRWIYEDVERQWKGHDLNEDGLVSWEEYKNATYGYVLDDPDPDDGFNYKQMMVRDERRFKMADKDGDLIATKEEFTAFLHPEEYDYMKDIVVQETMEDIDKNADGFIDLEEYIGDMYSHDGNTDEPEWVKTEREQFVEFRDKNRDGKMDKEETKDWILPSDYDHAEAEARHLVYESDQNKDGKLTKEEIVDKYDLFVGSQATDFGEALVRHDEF
Chain of HBA1 (P69905 2-142 limits assumed): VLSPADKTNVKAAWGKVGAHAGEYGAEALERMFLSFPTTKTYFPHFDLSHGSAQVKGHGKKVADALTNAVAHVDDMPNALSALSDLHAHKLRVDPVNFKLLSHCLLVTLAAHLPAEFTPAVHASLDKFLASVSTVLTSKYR
Chain of SSR1 (P43307 19-286 limits assumed): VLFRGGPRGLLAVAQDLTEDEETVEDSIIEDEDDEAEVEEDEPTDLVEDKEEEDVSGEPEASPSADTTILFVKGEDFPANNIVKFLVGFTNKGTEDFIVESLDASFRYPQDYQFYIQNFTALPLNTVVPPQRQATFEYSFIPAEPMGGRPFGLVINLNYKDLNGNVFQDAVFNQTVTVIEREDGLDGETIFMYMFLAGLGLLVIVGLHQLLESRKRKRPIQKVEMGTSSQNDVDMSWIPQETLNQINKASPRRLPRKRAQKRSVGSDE
Chain of CASP14 (human) (P31944 whole entry): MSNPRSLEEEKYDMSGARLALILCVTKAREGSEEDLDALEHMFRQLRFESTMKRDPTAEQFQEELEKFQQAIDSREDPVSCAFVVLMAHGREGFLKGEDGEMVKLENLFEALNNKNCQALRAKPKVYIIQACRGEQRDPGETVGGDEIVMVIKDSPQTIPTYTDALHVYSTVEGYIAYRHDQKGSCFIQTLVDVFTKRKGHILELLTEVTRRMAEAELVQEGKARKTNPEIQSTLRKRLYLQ
Chain of ATP5F1B (P06576 48-529 limits assumed): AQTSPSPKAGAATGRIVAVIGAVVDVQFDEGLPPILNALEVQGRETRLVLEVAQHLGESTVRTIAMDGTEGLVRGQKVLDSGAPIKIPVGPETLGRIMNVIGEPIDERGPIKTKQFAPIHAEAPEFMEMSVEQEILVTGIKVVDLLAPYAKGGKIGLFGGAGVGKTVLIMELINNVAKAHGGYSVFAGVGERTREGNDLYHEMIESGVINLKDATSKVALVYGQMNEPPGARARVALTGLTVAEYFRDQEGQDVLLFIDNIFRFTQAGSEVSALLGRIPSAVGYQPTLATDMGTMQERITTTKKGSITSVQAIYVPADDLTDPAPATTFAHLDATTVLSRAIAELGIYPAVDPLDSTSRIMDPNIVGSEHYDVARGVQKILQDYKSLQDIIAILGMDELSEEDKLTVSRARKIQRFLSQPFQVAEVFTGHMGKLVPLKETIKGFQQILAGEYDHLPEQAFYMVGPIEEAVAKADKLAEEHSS
Chain of RPN1 (P04843 24-607 limits assumed): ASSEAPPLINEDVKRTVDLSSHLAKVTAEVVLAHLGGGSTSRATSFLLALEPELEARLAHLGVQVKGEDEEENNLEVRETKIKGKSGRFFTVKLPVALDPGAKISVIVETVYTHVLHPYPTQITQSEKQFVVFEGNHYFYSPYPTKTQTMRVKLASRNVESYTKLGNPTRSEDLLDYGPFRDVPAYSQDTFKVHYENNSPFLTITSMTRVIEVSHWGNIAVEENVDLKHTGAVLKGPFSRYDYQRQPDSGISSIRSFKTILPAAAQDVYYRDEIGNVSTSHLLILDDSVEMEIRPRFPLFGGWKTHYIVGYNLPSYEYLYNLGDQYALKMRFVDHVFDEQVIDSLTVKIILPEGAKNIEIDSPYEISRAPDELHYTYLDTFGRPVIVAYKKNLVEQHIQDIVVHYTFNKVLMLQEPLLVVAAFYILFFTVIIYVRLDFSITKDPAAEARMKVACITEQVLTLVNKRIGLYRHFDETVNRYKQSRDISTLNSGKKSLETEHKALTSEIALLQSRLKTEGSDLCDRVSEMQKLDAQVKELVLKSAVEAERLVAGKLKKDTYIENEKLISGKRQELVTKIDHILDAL

## IgG control (Millipore Sigma 12-371) (antibody)
HNRNPA1
  co-IP mass spectrometry count: 4
RPL36A
  co-IP mass spectrometry count: 0
TRIM21
  co-IP mass spectrometry count: 0
SERPINB12
  co-IP mass spectrometry count: 0
HBA1
  co-IP mass spectrometry count: 0
YBX3
  co-IP mass spectrometry count: 0
RPN1
  co-IP mass spectrometry count: 0
RPLP2
  co-IP mass spectrometry count: 0
RPS17
  co-IP mass spectrometry count: 5
PPIA
  co-IP mass spectrometry count: 0
CTSD
  co-IP mass spectrometry count: 0
LTF
  co-IP mass spectrometry count: 2
YWHAZ
  co-IP mass spectrometry count: 0
PCMT1
  co-IP mass spectrometry count: 0
RPL10A
  co-IP mass spectrometry count: 0
EEF1A1
  co-IP mass spectrometry count: 5
ENO1
  co-IP mass spectrometry count: 2
SSR1
  co-IP mass spectrometry count: 0
ATP5F1B
  co-IP mass spectrometry count: 0
UBA52
  co-IP mass spectrometry count: 7
RPL35A
  co-IP mass spectrometry count: 0
RPL36
  co-IP mass spectrometry count: 0
DNAJA1 (human)
  co-IP mass spectrometry count: 0
CAPZB (human)
  co-IP mass spectrometry count: 0
CASP14 (human)
  co-IP mass spectrometry count: 4
PDIA6 (human)
  co-IP mass spectrometry count: 0
TUBB (human)
  co-IP mass spectrometry count: 10
RPS9 (human)
  co-IP mass spectrometry count: 0
RPS5 (human)
  co-IP mass spectrometry count: 0
RPL23A (human)
  co-IP mass spectrometry count: 4
CAPZA1 (human)
  co-IP mass spectrometry count: 0
ERLIN1 (human)
  co-IP mass spectrometry count: 0
CALU (human)
  co-IP mass spectrometry count: 0
LRP1 (human)
  co-IP mass spectrometry count: 0
RPLPO (human)
  co-IP mass spectrometry count: 0
FKBP10 (human)
  co-IP mass spectrometry count: 0
RCN2 (human)
  co-IP mass spectrometry count: 0
CKAP4 (human)
  co-IP mass spectrometry count: 0

Source: patent publication US20240261333A1, “NOVEL TARGETS FOR ENHANCING ANTI-TUMOR IMMUNITY” (THE BROAD INSTITUTE, INC., priority 2021, published 2024)
